In the supplement of paper PMC10567573 one finds protein stability index data, which are given here for 94 variants.

Sequences and labels used below:
B1: ZBTB22 (parent)
chain: HTGLKPYECGVCAKKFMWRDSFMR
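Further: lentivirally expressed fusions sorted by FACS into six bins by GFP to DsRed ratio, PSI derived from sequencing read proportions per bin multiplied by bin number.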

Variants of B1 are the subject of this data set. Briefly: protein stability index of a GFP-peptide fusion (GPS, HEK-293T) (PSI 1-6); higher = more stable. The settings on record: c terminus: a fixed tail appended.
Turning to HTGLKPYICGVCAKKFMWRDSFMR [E8I], the protein stability index was found to be 2.78.

Regarding HTGLKPYPCGVCAKKFMWRDSFMR [E8P], the protein stability index amounted to 2.59.

Regarding HTGLKPYMCGVCAKKFMWRDSFMR [E8M], the protein stability index turned out to be 2.26.

Take HTGLKPYFCGVCAKKFMWRDSFMR [E8F]: the protein stability index turned out to be 2.2.

As to HTGLKPYTCGVCAKKFMWRDSFMR [E8T], the protein stability index was found to be 2.61.

Take HTGLKPYDCGVCAKKFMWRDSFMR [E8D]: the protein stability index is 2.94.

As for HTGLKPYCCGVCAKKFMWRDSFMR [E8C], the protein stability index was determined as 1.96.

Consider HTGLKPYLCGVCAKKFMWRDSFMR [E8L], for which the protein stability index worked out at 1.49.

Regarding HTGLKPYYCGVCAKKFMWRDSFMR [E8Y], the protein stability index stood at 1.3.

For the variant HTGLKPYECGVCAKQFMWRDSFMR [K15Q], the protein stability index is 2.05.

In the case of HTGLKPYECGVCAKRFMWRDSFMR [K15R], the protein stability index was 2.86.

For the variant HTGLKPYECGVCAKFFMWRDSFMR [K15F], the protein stability index is 2.

As to HTGLKPYECGVCAKGFMWRDSFMR [K15G], the protein stability index amounted to 2.95.

On to HTGLKPYECGVCAKDFMWRDSFMR [K15D], for which the protein stability index is 2.52.

HTGLKPYECGVCAKLFMWRDSFMR [K15L]: the protein stability index came to 1.52.

HTGLKPYECGVCAKIFMWRDSFMR [K15I]: the protein stability index turned out to be 1.77.

For HTGLKPYECGVCAKNFMWRDSFMR [K15N], the protein stability index amounted to 2.26.

As for HTGLKPYECGVCAKWFMWRDSFMR [K15W], the protein stability index is 1.79.

Take HTGLKPYECGVCAKTFMWRDSFMR [K15T]: the protein stability index came to 1.61.

Take HTGLKPYECGVCAKHFMWRDSFMR [K15H]: the protein stability index worked out at 3.5.

For the variant HTGLKPYECGVCAKYFMWRDSFMR [K15Y], the protein stability index came out at 2.76.

On to HTGLKPYECGVCAKVFMWRDSFMR [K15V], for which the protein stability index worked out at 1.77.

In the case of HTGLKPYECGVCAKMFMWRDSFMR [K15M], the protein stability index was determined as 2.88.

As for HTGLKPYECGVCAKSFMWRDSFMR [K15S], the protein stability index was found to be 2.12.

In the case of HTGLKPYECGVCAKCFMWRDSFMR [K15C], the protein stability index was found to be 2.1.

Consider HTGLKPYECGVAAKKFMWRDSFMR [C12A], for which the protein stability index turned out to be 1.62.

On to HTGLKPYECGVPAKKFMWRDSFMR [C12P], for which the protein stability index was 1.73.

In the case of HTGLKPYECGVDAKKFMWRDSFMR [C12D], the protein stability index is 1.12.

For HTGLKPYECGVGAKKFMWRDSFMR [C12G], the protein stability index is 3.24.

Take HTGLKPYECGVNAKKFMWRDSFMR [C12N]: the protein stability index amounted to 2.56.

As to HTGLKPYECGVSAKKFMWRDSFMR [C12S], the protein stability index was determined as 2.56.

For HTGLKPYECGVEAKKFMWRDSFMR [C12E], the protein stability index was 3.07.

HTGLKPYECGVTAKKFMWRDSFMR [C12T]: the protein stability index was determined as 2.56.

For HTGLKPYECGVWAKKFMWRDSFMR [C12W], the protein stability index was 3.06.

Take HTGLKPYECGVIAKKFMWRDSFMR [C12I]: the protein stability index is 3.24.

For the variant HTGLKPYECGVKAKKFMWRDSFMR [C12K], the protein stability index was determined as 2.58.

HTGLKPYECGVYAKKFMWRDSFMR [C12Y]: the protein stability index stood at 2.91.

For the variant HTGLKPYECFVCAKKFMWRDSFMR [G10F], the protein stability index turned out to be 2.12.

As to HTGLKPYECEVCAKKFMWRDSFMR [G10E], the protein stability index was 2.44.

For HTGLKPYECMVCAKKFMWRDSFMR [G10M], the protein stability index came out at 1.64.

As for HTGLKPYECRVCAKKFMWRDSFMR [G10R], the protein stability index amounted to 2.01.

As to HTGLKPYECCVCAKKFMWRDSFMR [G10C], the protein stability index worked out at 2.58.

As to HTGLKPYECPVCAKKFMWRDSFMR [G10P], the protein stability index turned out to be 1.92.

In the case of HTGLKPYECYVCAKKFMWRDSFMR [G10Y], the protein stability index was determined as 3.51.

Take HTGLKPYECHVCAKKFMWRDSFMR [G10H]: the protein stability index stood at 1.96.

HTGLKPYECLVCAKKFMWRDSFMR [G10L]: the protein stability index was determined as 2.17.

On to HTGLKPYECSVCAKKFMWRDSFMR [G10S], for which the protein stability index stood at 1.47.

For HTGLKPYECKVCAKKFMWRDSFMR [G10K], the protein stability index was found to be 2.19.

For HTGLKPYECAVCAKKFMWRDSFMR [G10A], the protein stability index came to 2.82.

On to HTGLKPYECVVCAKKFMWRDSFMR [G10V], for which the protein stability index came to 4.2.

Regarding HTGLKPYECDVCAKKFMWRDSFMR [G10D], the protein stability index came to 1.98.

With HTGLKPYECTVCAKKFMWRDSFMR [G10T], the protein stability index was found to be 1.84.

With HTGLKPYECNVCAKKFMWRDSFMR [G10N], the protein stability index is 2.62.

With HTGLKPYECQVCAKKFMWRDSFMR [G10Q], the protein stability index was 2.19.

Consider HTGLKPYERGVCAKKFMWRDSFMR [C9R], for which the protein stability index was 1.8.

HTGLKPYEEGVCAKKFMWRDSFMR [C9E]: the protein stability index is 1.1.

For HTGLKPYEMGVCAKKFMWRDSFMR [C9M], the protein stability index was 2.58.

For the variant HTGLKPYEKGVCAKKFMWRDSFMR [C9K], the protein stability index amounted to 2.22.

On to HTGLKPYEGGVCAKKFMWRDSFMR [C9G], for which the protein stability index is 2.23.

As to HTGLKPYEIGVCAKKFMWRDSFMR [C9I], the protein stability index is 1.98.

In the case of HTGLKPYEFGVCAKKFMWRDSFMR [C9F], the protein stability index came to 3.19.

With HTGLKPYEDGVCAKKFMWRDSFMR [C9D], the protein stability index amounted to 1.85.

For HTGLKPYETGVCAKKFMWRDSFMR [C9T], the protein stability index was 1.78.

For HTGLKPYEAGVCAKKFMWRDSFMR [C9A], the protein stability index was found to be 1.46.

With HTGLKPYEQGVCAKKFMWRDSFMR [C9Q], the protein stability index is 1.65.

Regarding HTGLKPYENGVCAKKFMWRDSFMR [C9N], the protein stability index was determined as 2.26.

On to HTGLKPYEVGVCAKKFMWRDSFMR [C9V], for which the protein stability index was 2.02.

On to HTGLKPYEPGVCAKKFMWRDSFMR [C9P], for which the protein stability index worked out at 2.65.

With HTGLKPYESGVCAKKFMWRDSFMR [C9S], the protein stability index is 1.42.

For the variant HTGLKPYELGVCAKKFMWRDSFMR [C9L], the protein stability index was 2.75.

In the case of HTGLKPYEHGVCAKKFMWRDSFMR [C9H], the protein stability index amounted to 1.48.

For HTGLKPYEWGVCAKKFMWRDSFMR [C9W], the protein stability index came to 2.35.

With HTGLKPIECGVCAKKFMWRDSFMR [Y7I], the protein stability index turned out to be 3.53.

In the case of HTGLKPCECGVCAKKFMWRDSFMR [Y7C], the protein stability index came to 2.68.

As to HTGLKPLECGVCAKKFMWRDSFMR [Y7L], the protein stability index came to 2.73.

For the variant HTGLKPQECGVCAKKFMWRDSFMR [Y7Q], the protein stability index was 1.77.

Regarding HTGLKPVECGVCAKKFMWRDSFMR [Y7V], the protein stability index was found to be 1.67.

Take HTGLKPEECGVCAKKFMWRDSFMR [Y7E]: the protein stability index amounted to 1.3.

Regarding HTGLKPDECGVCAKKFMWRDSFMR [Y7D], the protein stability index was found to be 1.82.

For the variant HTGLKPNECGVCAKKFMWRDSFMR [Y7N], the protein stability index amounted to 2.43.

As to HTGLKPKECGVCAKKFMWRDSFMR [Y7K], the protein stability index was found to be 3.09.

For HTGLKPFECGVCAKKFMWRDSFMR [Y7F], the protein stability index came out at 2.27.

Take HTGLKPPECGVCAKKFMWRDSFMR [Y7P]: the protein stability index was determined as 1.34.

Take HTGLKPAECGVCAKKFMWRDSFMR [Y7A]: the protein stability index was found to be 2.64.

Regarding HTGLKPMECGVCAKKFMWRDSFMR [Y7M], the protein stability index was 2.08.

With HTGLKPTECGVCAKKFMWRDSFMR [Y7T], the protein stability index amounted to 3.12.

Take HTGLKPGECGVCAKKFMWRDSFMR [Y7G]: the protein stability index came out at 2.84.

HTGLKPSECGVCAKKFMWRDSFMR [Y7S]: the protein stability index amounted to 1.97.

HTGLKPYECGVCAKKFMDRDSFMR [W18D]: the protein stability index stood at 2.09.

Take HTGLKPYECGVCAKKFMYRDSFMR [W18Y]: the protein stability index is 3.

Consider HTGLKPYECGVCAKKFMRRDSFMR [W18R], for which the protein stability index stood at 2.05.

For the variant HTGLKPYECGVCAKKFMCRDSFMR [W18C], the protein stability index was 1.85.

As for HTGLKPYECGVCAKKFMNRDSFMR [W18N], the protein stability index came out at 1.61.

On to HTGLKPYECGVCAKKFMTRDSFMR [W18T], for which the protein stability index was 1.68.
